Results taken from patent publication US20260167731A1.

Tests used:
[1] = target: human CCR8 (human) (UniProt P51685); experiment: cell-based or functional assay
[2] = target: human CCR8 (human) (UniProt P51685); experiment: flow cytometry, hCCR8 transfected CHOK1 cells

Substance “hCCL1 (from UniProt P22362 24-96) (ligand)” has an EC80 of hCCL1, hCCR8 Gi2 BRET, HEK-293 in suspension (protocol #1) [1] of 6 nM and an EC80 of hCCL1, hCCR8 Gi2 BRET, adherent HEK-293 (protocol #4) [1] of 0.6 nM.
“murine anti-human CCR8 monoclonal antibody L263G8” was tested, and the % positive cells [2] was 86.5% and the MFI fold change to isotype ctrl [2] was 19.8 fold.
